Data reported in article PMC3035459 (Nucleic Acids Research, 2010).

Biological target: the molecule itself
Assay: crystal structure

B1: Methanocaldococcus jannaschii O-phosphoseryl-tRNA kinase (enzyme, UniProt Q58933 1-248, looked up)
chain: MLIILTGLPGVGKSTFSKNLAKILSKNNIDVIVLGSDLIRESFPVWKEKYEEFIKKSTYRLIDSALKNYWVIVDDTNYYNSMRRDLINIAKKYNKNYAIIYLKASLDVLIRRNIERGEKIPNEVIKKMYEKFDEPGKKYKWDEPFLIIDTTKDIDFNEIAKKLIEKSKEIPKFYVLEENKNKNNNISDKIDKETRKIVSEYIKSKKLDKDKIKEVVELRKEFLKKIKKMEEVDADRVLKEFKDLLNSY
stoichiometry N: 2
